From the supplement of paper PMC10065799, “High-throughput profiling of sequence recognition by tyrosine kinases and SH2 domains using bacterial peptide display” (eLife, 2023)

Legend:
Grb2 SH2 = Grb2 SH2 (UniProt P62993); assay: SH2 binding enrichment of the phosphorylated peptide, bacterial display (enrichment ratio); higher = better substrate or ligand; peptides without Tyr show the background
c-Src SH2 = assay: as above
SHP2-C SH2 = assay: as above
EPHB1 = EPHB1 (UniProt P54762); assay: phosphorylation enrichment, bacterial display (enrichment ratio); higher = better substrate or ligand; peptides without Tyr show the background
Hck = Hck (UniProt P08631); assay: as above
Sequence of Hck (P08631 whole entry, looked up): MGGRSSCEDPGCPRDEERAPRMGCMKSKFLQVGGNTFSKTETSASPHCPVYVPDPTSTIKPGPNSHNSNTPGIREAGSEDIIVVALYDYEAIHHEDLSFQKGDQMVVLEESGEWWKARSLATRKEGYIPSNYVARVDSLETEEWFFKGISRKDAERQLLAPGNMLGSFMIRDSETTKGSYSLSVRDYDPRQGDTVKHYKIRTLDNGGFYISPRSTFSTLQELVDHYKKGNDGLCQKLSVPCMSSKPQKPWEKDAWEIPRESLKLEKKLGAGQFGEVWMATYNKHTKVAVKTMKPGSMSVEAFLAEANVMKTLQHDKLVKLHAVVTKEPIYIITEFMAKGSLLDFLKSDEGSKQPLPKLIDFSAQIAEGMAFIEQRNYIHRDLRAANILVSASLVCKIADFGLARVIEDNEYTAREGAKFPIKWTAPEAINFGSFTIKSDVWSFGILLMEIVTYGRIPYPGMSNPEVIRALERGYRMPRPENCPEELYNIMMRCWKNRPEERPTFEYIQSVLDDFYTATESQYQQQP

Jak2 = Jak2 (UniProt O60674); assay: as above
Sequence of Jak2 (O60674 whole entry, looked up): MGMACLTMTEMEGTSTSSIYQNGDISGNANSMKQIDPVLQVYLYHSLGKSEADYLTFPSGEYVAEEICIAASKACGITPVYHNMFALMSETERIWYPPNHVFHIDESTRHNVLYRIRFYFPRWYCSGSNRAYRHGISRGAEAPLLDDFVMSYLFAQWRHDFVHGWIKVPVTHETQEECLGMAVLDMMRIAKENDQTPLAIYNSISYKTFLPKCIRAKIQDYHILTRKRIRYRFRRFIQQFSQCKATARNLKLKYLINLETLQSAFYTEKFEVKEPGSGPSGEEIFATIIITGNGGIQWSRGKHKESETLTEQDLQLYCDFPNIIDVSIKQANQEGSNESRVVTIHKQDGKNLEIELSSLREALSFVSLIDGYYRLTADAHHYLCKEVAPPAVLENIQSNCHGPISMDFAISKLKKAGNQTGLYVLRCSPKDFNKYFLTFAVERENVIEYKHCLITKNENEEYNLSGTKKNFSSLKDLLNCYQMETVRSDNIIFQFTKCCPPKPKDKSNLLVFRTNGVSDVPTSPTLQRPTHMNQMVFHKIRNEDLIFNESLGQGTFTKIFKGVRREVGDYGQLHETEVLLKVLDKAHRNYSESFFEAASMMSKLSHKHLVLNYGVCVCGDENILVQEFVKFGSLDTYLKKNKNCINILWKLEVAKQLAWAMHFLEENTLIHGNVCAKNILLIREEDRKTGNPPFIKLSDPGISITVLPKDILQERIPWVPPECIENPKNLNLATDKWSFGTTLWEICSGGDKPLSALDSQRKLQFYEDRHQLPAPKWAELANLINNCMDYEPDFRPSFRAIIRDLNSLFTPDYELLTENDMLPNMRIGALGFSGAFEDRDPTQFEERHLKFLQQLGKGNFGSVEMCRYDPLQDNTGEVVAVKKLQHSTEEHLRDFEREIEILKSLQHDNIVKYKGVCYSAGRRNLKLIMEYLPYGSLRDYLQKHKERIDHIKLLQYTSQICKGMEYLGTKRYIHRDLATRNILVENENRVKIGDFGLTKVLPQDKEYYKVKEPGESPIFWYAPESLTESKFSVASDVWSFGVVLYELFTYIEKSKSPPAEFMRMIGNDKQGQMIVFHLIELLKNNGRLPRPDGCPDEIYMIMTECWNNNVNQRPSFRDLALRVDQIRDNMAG

FGFR3 = FGFR3 (UniProt P22607); assay: as above
Fer (mouse) = assay: as above
EPHB2 = EPHB2 (UniProt P29323); assay: as above
Sequence of EPHB2 (P29323 whole entry, looked up): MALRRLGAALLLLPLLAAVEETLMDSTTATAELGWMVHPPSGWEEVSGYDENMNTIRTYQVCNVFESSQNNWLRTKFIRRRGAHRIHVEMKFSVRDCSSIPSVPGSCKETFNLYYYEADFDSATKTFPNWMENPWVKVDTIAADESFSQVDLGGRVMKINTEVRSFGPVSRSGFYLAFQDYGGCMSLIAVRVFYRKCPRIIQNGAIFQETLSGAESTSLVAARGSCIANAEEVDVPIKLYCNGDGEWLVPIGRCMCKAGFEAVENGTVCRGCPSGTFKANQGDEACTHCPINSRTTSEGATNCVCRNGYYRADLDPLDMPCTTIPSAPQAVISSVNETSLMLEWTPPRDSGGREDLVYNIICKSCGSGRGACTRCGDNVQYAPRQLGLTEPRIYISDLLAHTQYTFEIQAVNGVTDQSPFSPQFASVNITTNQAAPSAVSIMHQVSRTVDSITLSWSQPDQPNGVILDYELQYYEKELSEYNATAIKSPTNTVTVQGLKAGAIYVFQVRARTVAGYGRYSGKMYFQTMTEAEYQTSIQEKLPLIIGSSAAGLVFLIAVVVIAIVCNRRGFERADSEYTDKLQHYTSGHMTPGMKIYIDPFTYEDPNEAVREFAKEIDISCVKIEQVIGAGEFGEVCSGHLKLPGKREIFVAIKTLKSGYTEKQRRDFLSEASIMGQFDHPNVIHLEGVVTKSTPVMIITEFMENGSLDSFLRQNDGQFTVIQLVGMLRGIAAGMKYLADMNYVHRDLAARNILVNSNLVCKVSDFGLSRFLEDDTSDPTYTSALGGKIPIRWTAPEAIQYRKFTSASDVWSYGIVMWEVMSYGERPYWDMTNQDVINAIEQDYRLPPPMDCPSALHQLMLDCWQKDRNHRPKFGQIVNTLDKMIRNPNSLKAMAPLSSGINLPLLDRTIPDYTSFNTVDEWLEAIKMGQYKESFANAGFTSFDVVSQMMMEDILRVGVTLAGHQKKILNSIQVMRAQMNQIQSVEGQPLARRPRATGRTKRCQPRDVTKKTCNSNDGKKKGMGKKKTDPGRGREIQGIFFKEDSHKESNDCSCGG

Fyn = Fyn (UniProt P06241); assay: as above
Sequence of Fyn (P06241 whole entry, looked up): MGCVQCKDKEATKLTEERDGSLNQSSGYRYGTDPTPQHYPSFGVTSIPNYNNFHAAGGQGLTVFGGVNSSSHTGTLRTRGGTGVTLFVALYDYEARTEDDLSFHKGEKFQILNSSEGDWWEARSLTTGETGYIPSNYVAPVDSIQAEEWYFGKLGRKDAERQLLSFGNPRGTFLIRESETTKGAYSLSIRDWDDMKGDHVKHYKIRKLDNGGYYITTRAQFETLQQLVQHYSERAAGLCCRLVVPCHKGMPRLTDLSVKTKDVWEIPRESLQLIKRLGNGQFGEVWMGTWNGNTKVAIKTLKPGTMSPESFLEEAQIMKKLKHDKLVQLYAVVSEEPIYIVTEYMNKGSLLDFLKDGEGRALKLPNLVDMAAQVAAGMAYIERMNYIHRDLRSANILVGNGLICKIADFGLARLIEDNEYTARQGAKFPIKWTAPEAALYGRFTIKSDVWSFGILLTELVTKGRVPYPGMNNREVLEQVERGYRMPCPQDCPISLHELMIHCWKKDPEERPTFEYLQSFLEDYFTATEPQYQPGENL

Fes = Fes (UniProt P07332); assay: as above
Sequence of Fes (P07332 whole entry, looked up): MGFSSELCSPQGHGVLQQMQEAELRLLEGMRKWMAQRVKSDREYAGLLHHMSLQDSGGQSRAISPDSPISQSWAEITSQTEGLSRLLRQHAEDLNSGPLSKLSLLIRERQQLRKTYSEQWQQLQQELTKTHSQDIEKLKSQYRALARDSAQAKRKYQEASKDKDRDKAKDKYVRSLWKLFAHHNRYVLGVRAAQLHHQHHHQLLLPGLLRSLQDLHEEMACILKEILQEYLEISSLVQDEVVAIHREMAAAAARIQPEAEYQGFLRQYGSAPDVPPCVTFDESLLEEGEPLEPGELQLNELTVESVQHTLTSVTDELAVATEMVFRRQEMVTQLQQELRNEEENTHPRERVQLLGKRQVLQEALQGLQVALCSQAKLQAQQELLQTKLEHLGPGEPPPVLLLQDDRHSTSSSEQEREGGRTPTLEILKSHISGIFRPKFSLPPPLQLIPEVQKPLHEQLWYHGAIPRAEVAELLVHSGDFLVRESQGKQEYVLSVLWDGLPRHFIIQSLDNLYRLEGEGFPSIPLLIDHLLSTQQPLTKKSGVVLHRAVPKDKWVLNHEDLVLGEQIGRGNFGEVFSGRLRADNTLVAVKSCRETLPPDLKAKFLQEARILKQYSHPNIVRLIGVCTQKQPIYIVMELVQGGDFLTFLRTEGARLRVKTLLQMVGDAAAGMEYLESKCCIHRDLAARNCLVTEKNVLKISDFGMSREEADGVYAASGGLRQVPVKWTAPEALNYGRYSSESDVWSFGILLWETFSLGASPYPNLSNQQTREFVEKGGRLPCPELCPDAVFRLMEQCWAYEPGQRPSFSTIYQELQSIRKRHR

c-Abl (mouse) = assay: as above
MERTK = MERTK (UniProt Q12866); assay: as above
Sequence of MERTK (Q12866 whole entry, looked up): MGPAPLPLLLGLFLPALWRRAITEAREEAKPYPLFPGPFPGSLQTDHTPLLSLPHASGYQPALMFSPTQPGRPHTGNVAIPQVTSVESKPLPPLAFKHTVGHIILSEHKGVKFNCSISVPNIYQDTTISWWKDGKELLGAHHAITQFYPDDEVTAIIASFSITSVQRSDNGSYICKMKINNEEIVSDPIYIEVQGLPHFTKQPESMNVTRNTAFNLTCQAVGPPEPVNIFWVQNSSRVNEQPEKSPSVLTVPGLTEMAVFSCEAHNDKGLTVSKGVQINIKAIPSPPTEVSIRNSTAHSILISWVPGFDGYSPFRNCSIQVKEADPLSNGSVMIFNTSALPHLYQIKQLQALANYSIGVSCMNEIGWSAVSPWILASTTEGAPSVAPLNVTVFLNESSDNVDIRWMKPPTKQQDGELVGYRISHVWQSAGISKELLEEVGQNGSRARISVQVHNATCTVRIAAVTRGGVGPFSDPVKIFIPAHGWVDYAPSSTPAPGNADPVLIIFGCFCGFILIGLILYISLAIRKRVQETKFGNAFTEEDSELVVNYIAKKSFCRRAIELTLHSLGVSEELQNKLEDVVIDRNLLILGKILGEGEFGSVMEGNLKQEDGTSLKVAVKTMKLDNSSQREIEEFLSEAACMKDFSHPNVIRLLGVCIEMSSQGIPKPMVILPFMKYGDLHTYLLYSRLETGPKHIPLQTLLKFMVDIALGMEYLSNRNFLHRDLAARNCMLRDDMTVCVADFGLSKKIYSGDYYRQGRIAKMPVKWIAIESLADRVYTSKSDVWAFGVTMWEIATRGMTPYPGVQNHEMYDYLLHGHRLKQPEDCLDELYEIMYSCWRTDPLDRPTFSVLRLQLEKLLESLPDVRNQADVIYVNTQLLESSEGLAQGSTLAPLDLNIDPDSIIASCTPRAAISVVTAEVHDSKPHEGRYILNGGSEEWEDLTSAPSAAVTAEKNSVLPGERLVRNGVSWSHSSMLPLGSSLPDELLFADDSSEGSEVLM

c-Src = assay: as above
FGFR1 = FGFR1 (UniProt P11362); assay: as above
AncSZ = assay: as above
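Wherever SH2 binding enrichment of the phosphorylated peptide, bacterial display is given: peptide library displayed on the E. coli surface as eCPX fusions, selected cells deep-sequenced, score is each peptide's frequency after selection divided by its frequency in the input.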
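Wherever phosphorylation enrichment, bacterial display is given: 11-residue human phosphosite peptides and single-mutation variants displayed on the E. coli surface, counted by deep sequencing, each peptide's frequency after selection divided by its frequency in the unselected input library; frequency after pTyr selection over input frequency; kinase dosed for 20-30% of maximal phosphorylation in three min.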

| SH2 binding enrichment (Grb2 SH2) | SH2 binding enrichment (c-Src SH2) | SH2 binding enrichment (SHP2-C SH2) | Sequence | phosphorylation enrichment (EPHB1) | phosphorylation enrichment (Hck) | phosphorylation enrichment (Jak2) | phosphorylation enrichment (FGFR3) | phosphorylation enrichment (Fer (mouse)) | phosphorylation enrichment (EPHB2) | phosphorylation enrichment (Fyn) | phosphorylation enrichment (Fes) | phosphorylation enrichment (c-Abl (mouse)) | phosphorylation enrichment (MERTK) | phosphorylation enrichment (c-Src) | phosphorylation enrichment (FGFR1) | phosphorylation enrichment (AncSZ) |
| --- | --- | --- | --- | --- | --- | --- | --- | --- | --- | --- | --- | --- | --- | --- | --- | --- |
| 0.951 | 0.815 | 0.788 | KPGLVYNKVNP [SPRED3_Y72] | 0.413 | 0.603 | 0.936 | 0.453 | 0.409 | 0.395 | 0.424 | 0.595 | 0.675 | 0.402 | 0.539 | 0.383 | 0.704 |
| 0.838 | 0.412 | 0.831 | KPLMPYMRFSR [SMARCE1_Y73_YF] | 0.385 | 0.493 | 0.843 | 0.547 | 0.352 | 0.464 | 0.591 | 0.872 | 0.99 | 0.479 | 0.508 | 0.466 | 1.3 |
| 2.29 | 2.02 | 2.21 | KQRKEYMHRWQ [IQGAP2_Y710_R714W] | 0.652 | 0.613 | 1.68 | 1.16 | 0.617 | 0.746 | 0.523 | 1.02 | 1.05 | 0.519 | 0.584 | 0.577 | 0.846 |
| 0.999 | 0.64 | 0.941 | KRISCYEARFQ [PFKFB3_Y194_S197R_YF] | 0.398 | 0.425 | 0.647 | 0.496 | 0.399 | 0.476 | 0.382 | 0.845 | 0.728 | 0.395 | 0.497 | 0.344 | 0.669 |
| 0.915 | 0.591 | 0.682 | KRISCYEARYQ [PFKFB3_Y194_S197R] | 0.466 | 0.388 | 0.735 | 0.523 | 0.4 | 0.415 | 0.479 | 0.746 | 0.526 | 0.357 | 0.365 | 0.392 | 0.708 |
| 0.721 | 0.589 | 0.75 | KSAAIYNPVIF [RHO_Y301_YF] | 0.559 | 8.01 | 0.634 | 0.557 | 16.1 | 0.519 | 5.56 | 0.939 | 1.11 | 4.6 | 4.71 | 0.567 | 0.757 |
| 1.02 | 4.1 | 0.626 | KSIQLYDTPYE [SHB_Y297_G293S] | 11.6 | 1.76 | 0.921 | 0.643 | 3.02 | 15.8 | 0.827 | 1.07 | 1.03 | 4.79 | 0.986 | 0.521 | 1.29 |
| 0.93 | 0.628 | 0.781 | KTGDFYDLFGG [PTPN11_Y63_N58K_YF] | 0.577 | 2.04 | 0.781 | 0.6 | 0.716 | 0.463 | 3.14 | 0.879 | 0.627 | 2.74 | 2.65 | 0.523 | 0.956 |
| 1.47 | 1.14 | 1.31 | KWHREYNSKYV [RICTOR_Y835] | 0.348 | 0.371 | 0.513 | 0.42 | 0.32 | 0.401 | 0.398 | 0.414 | 0.461 | 0.339 | 0.294 | 0.37 | 0.461 |
| 1.62 | 1.37 | 2.88 | KYVVVYFREID [IL17RB_Y447] | 0.578 | 0.499 | 1.51 | 0.867 | 0.591 | 0.545 | 0.486 | 1.66 | 1.01 | 0.471 | 0.626 | 0.513 | 1.61 |

Second part, the sequence before the results:

| Sequence | SH2 binding enrichment (Grb2 SH2) | SH2 binding enrichment (c-Src SH2) | SH2 binding enrichment (SHP2-C SH2) | phosphorylation enrichment (EPHB1) | phosphorylation enrichment (Hck) | phosphorylation enrichment (Jak2) | phosphorylation enrichment (FGFR3) | phosphorylation enrichment (Fer (mouse)) | phosphorylation enrichment (EPHB2) | phosphorylation enrichment (Fyn) | phosphorylation enrichment (Fes) | phosphorylation enrichment (c-Abl (mouse)) | phosphorylation enrichment (MERTK) | phosphorylation enrichment (c-Src) | phosphorylation enrichment (FGFR1) | phosphorylation enrichment (AncSZ) |
| --- | --- | --- | --- | --- | --- | --- | --- | --- | --- | --- | --- | --- | --- | --- | --- | --- |
| KQMEQYMSFHK [HCN1_Y417_V414M] | 0.822 | 0.576 | 0.429 | 0.393 | 4.18 | 0.516 | 0.547 | 0.313 | 0.369 | 1.47 | 0.573 | 0.416 | 0.419 | 1.76 | 0.408 | 0.5 |
| KRAIGHYSATS [FAM120A_Y327_Y327H] | 1.12 | 0.778 | 0.564 | 0.305 | 0.312 | 0.439 | 0.423 | 0.356 | 0.286 | 0.346 | 0.498 | 0.474 | 0.355 | 0.434 | 0.319 | 0.459 |
| KRAIGYYSATS [FAM120A_Y327] | 0.864 | 1.41 | 0.821 | 0.366 | 0.406 | 0.439 | 0.389 | 0.383 | 0.387 | 0.456 | 0.472 | 0.437 | 0.55 | 0.359 | 0.412 | 0.477 |
| KRLDGYVLEGW [IGSF9_Y656_R661W] | 0.844 | 2.36 | 0.819 | 0.48 | 0.453 | 0.651 | 0.511 | 0.506 | 0.484 | 0.484 | 0.835 | 0.532 | 0.381 | 0.418 | 0.542 | 0.712 |
| KTKLGYSPLHQ [ANK1_Y735] | 1.2 | 0.849 | 1.05 | 0.296 | 0.322 | 0.397 | 0.385 | 0.354 | 0.326 | 0.373 | 0.48 | 0.691 | 0.399 | 0.369 | 0.31 | 0.454 |
| KWRGQYDVAIK [BTK_Y425] | 1.34 | 1.21 | 0.935 | 0.399 | 0.479 | 0.543 | 0.546 | 0.429 | 0.642 | 0.491 | 0.742 | 0.802 | 0.463 | 0.567 | 0.527 | 0.676 |
| LADKPYTFEDF [FXN_Y118_YF] | 1.1 | 0.708 | 0.954 | 1.43 | 1.26 | 0.988 | 2 | 1.96 | 1.86 | 7.15 | 2.52 | 0.738 | 1.39 | 3.9 | 2.21 | 2.9 |
